Legend:
[1] = target: T1, MAGE-A3 peptide on HLA-DRB1*11:01 (human); experiment: cytokine release
T1 peptide: TSYVKVLHHMVKISG

[2] = target: T2, NY-ESO-1 peptide on HLA-B*35:03 (human); experiment: killing
T2 peptide: MPFATPMEAEL

[3] = target: T3, NY-ESO-1 peptide on HLA-A*02:01 (human); experiment: killing
T3 peptide: SLLMWITQC

[4] = target: T4, MAGE-A3 peptide on HLA-DRB1*13:02 (human); experiment: cytokine release
T4 peptide: TSYVKVLHHMVKISG

[5] = target: T5, MAGE-A3 peptide on HLA-A*01:01 (human); experiment: multimer staining
T5 peptide: EVDPIGHLY

[6] = target: T6, NY-ESO-1 peptide on HLA-C*03:04 (human); experiment: multimer staining
T6 peptide: FATPMEAEL

[7] = target: T7, NY-ESO-1 peptide on HLA-B*35:03 (human); experiment: killing
T7 peptide: MPFATPMEA

[8] = target: NY-ESO-1 peptide on HLA-B*40:01 (human); experiment: killing
[9] = target: T8, KRAS Q61H peptide on HLA-A*01:01 (human); experiment: IFNγ ELISPOT; peptide titration (1 µM to 0.1 nM) on HLA-A*01:01-transfected K562; full-length, on cells
T8 peptide: ILDTAGHEEY

[10] = target: T5, MAGE-A3 peptide on HLA-A*01:01; experiment: cytokine release

B1: TCRCD4-MA3#9 (TCR, V domains shown)
Valpha: GNSVTQMEGPVTLSEEAFLTINCTYTATGYPSLFWYVQYPGEGLQLLLKATKADDKGSNKGFEATYRKETTSFHLEKGSVQVSDSAVYFCALSDPNNQGGKLIFGQGTELSVKP
Vbeta: DTAVSQTPKYLVTQMGNDKSIKCEQNLGHDTMYWYKQDSKKFLKIMFSYNNKELIINETVPNRFSPKSPDKAHLNLHINSLELGDSAVYFCASSQVRGTTEAFFGQGTRLTVV
B1: recognises [1].

B2: TCRCD8-NY#99 (TCR, V domains shown)
Valpha: KQEVTQIPAALSVPEGENLVLNCSFTDSAIYNLQWFRQDPGKGLTSLLLIQSSQREQTSGRLNASLDKSSGRSTLYIAASQPGDSATYLCAPNDYKLSFGAGTTVTVRA
Vbeta: KAGVTQTPRYLIKTRGQQVTLSCSPISGHRSVSWYQQTPGQGLQFLFEYFSETQRNKGNFPGRFSGRQFSNSRSEMNVSTLELGDSALYLCASSFSSDNEQFFGPGTRLTVL
B2: recognises [2].

B3: TCRCD8-NY#100 (TCR, V domains shown)
Valpha: SQQGEEDPQALSIQEGENATMNCSYKTSINNLQWYRQNSGRGLVHLILIRSNEREKHSGRLRVTLDTSKKSSSLLITASRAADTASYFCATDSNDYKLSFGAGTTVTVRA
Vbeta: GAGVSQSPRYKVTKRGQDVALRCDPISGHVSLYWYRQALGQGPEFLTYFNYEAQQDKSGLPNDRFSAERPEGSISTLTIQRTEQRDSAMYRCASSWGGELFFGEGSRLTVL
B3: recognises [2].

B4: TCRCD8-NY#102 (TCR, V domains shown)
Valpha: AQSVAQPEDQVNVAEGNPLTVKCTYSVSGNPYLFWYVQYPNRGLQFLLKYITGDNLVKGSYGFEAEFNKSQTSFHLKKPSALVSDSALYFCAVRDIEVVNAGNMLTFGGGTRLMVKP
Vbeta: ETGVTQSPTHLIKTRGQQVTLRCSSQSGHNTVSWYQQALGQGPQFIFQYYREEENGRGNFPPRFSGLQFPNYSSELNVNALELDDSALYLCASTDRVRYEQFFGPGTRLTVL
B4: recognises [2].

B5: TCRCD8-EL28-NYE #2 (TCR, V domains shown)
Valpha: SQELEQSPQSLIVQEGKNLTINCTSSKTLYGLYWYKQKYGEGLIFLMMLQKGGEEKSHEKITAKLDEKKQQSSLHITASQPSHAGIYLCGADMLDYQKVTFGIGTKLQVIP
Vbeta: DAGVIQSPRHEVTEMGQEVTLRCKPISGHDYLFWYRQTMMRGLELLIYFNNNVPIDDSGMPEDRFSAKMPNASFSTLKIQPSEPRDSAVYFCASRRGGSEQYFGPGTRLTVT
B5: recognises [3].

B6: TCRCD4-MA3#5 (TCR, V domains shown)
Valpha: AQSVTQLGSHVSVSEGALVLLRCNYSSSVPPYLFWYVQYPNQGLQLLLKYTSAATLVKGINGFEAEFKKSETSFHLTKPSAHMSDAAEYFCAVSDGGATNKLIFGTGTLLAVQP
Vbeta: DGGITQSPKYLFRKEGQNVTLSCEQNLNHDAMYWYRQDPGQGLRLIYYSQIVNDFQKGDIAEGYSVSREKKESFPLTVTSAQKNPTAFYLCASSSGGRASFTQYFGPGTRLTVL
B6: recognises [4].

B7: TCRCD8-MA3#7 (TCR, V domains shown)
Valpha: ELKVEQNPLFLSMQEGKNYTIYCNYSTTSDRLYWYRQDPGKSLESLFVLLSNGAVKQEGRLMASLDTKARLSTLHITAAVHDLSATYFCAEPNTDKLIFGTGTRLQVFP
Vbeta: DAMVIQNPRYQVTQFGKPVTLSCSQTLNHNVMYWYQQKSSQAPKLLFHYYDKDFNNEADTPDNFQSRRPNTSFCFLDIRSPGLGDTAMYLCATNYDRGYEQYFGPGTRLTVT
B7: recognises [5].

B8: TCRCD8-MA3#8 (TCR, V domains shown)
Valpha: QKEVEQNSGPLSVPEGAIASLNCTYSDRGSQSFFWYRQYSGKSPELIMFIYSNGDKEDGRFTAQLNKASQYVSLLIRDSQPSDSATYLCAVWATGNQFYFGTGTSLTVIP
Vbeta: DAMVIQNPRYQVTQFGKPVTLSCSQTLNHNVMYWYQQKSSQAPKLLFHYYDKDFNNEADTPDNFQSRRPNTSFCFLDIRSPGLGDTAMYLCATSFDRGYEQYFGPGTRLTVT
B8: recognises [5].

B9: TCRCD8-53-02-NY #107 (TCR, V domains shown)
Valpha: GQNIDQPTEMTATEGAIVQINCTYQTSGFNGLFWYQQHAGEAPTFLSYNVLDGLEEKGRFSSFLSRSKGYSYLLLKELQMKDSASYLCAVRLGDAGNMLTFGGGTRLMVKP
Vbeta: DSGVTQTPKHLITATGQRVTLRCSPRSGDLSVYWYQQSLDQGLQFLIQYYNGEERAKGNILERFSAQQFPDLHSELNLSSLELGDSALYFCASSVGRGMNTEAFFGQGTRLTVV
B9: recognises [6].

B10: TCRCD8-NY#101 (TCR, V domains shown)
Valpha: AQTVTQSQPEMSVQEAETVTLSCTYDTSESDYYLFWYKQPPSRQMILVIRQEAYKQQNATENRFSVNFQKAAKSFSLKISDSQLGDAAMYFCAYRSDAGGTSYGKLTFGQGTILTVHP
Vbeta: ETGVTQSPTHLIKTRGQQVTLRCSSQSGHNTVSWYQQALGQGPQFIFQYYREEENGRGNFPPRFSGLQFPNYSSELNVNALELDDSALYLCASSPRTGGAGNTIYFGEGSWLTVV
B10: recognises [7].

B11: TCRCD8-53-02-NY #109 (TCR, V domains shown)
Valpha: GQQVMQIPQYQHVQEGEDFTTYCNSSTTLSNIQWYKQRPGGHPVFLIQLVKSGEVKKQKRLTFQFGEAKKNSSLHITATQTTDVGTYFCADNAGNMLTFGGGTRLMVKP
Vbeta: GAVVSQHPSWVICKSGTSVKIECRSLDFQATTMFWYRQFPKQSLMLMATSNEGSKATYEQGVEKDKFLINHASLTLSTLTVTSAHPEDSSFYICSARDPGRNYGYTFGSGTRLTVV
B11: recognises [8].

B12: TCRCD8-53-02-NY #110 (TCR, V domains shown)
Valpha: GQQVMQIPQYQHVQEGEDFTTYCNSSTTLSNIQWYKQRPGGHPVFLIQLVKSGEVKKQKRLTFQFGEAKKNSSLHITATQTTDVGTYFCGDNAGNMLTFGGGTRLMVKP
Vbeta: GAVVSQHPSWVICKSGTSVKIECRSLDFQATTMFWYRQFPKQSLMLMATSNEGSKATYEQGVEKDKFLINHASLTLSTLTVTSAHPEDSSFYICSARDEDRPYGYTFGSGTRLTVV
B12: recognises [8].

B13: TCRCD8-MA3#10 (TCR, V domains shown)
Valpha: RKEVEQDPGPFNVPEGATVAFNCTYSNSASQSFFWYRQDCRKEPKLLMSVYSSGNEDGRFTAQLNRASQYISLLIRDSKLSDSATYLCVVNERNSGYALNFGKGTSLLVTP
Vbeta: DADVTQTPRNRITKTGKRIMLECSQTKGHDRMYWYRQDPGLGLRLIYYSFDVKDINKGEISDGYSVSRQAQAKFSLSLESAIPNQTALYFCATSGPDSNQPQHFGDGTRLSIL
B13: recognises [5].

B14: TCRCD8-EL8-LM7 #1 (TCR, V domains shown)
Valpha: AQKITQTQPGMFVQEKEAVTLDCTYDTSDPSYGLFWYKQPSSGEMIFLIYQGSYDQQNATEGRYSLNFQKARKSANLVISASQLGDSAMYFCAMREGQDSSYKLIFGSGTRLLVRP
Vbeta: DSGVTQTPKHLITATGQRVTLRCSPRSGDLSVYWYQQSLDQGLQFLIQYYNGEERAKGNILERFSAQQFPDLHSELNLSSLELGDSALYFCASSVLGPNTEAFFGQGTRLTVV
With B14 the “minimal recognised peptide concentration” value [9] was 10 nM.

B15: TCRCD8-C1-40-MA3 #1 (TCR, V domains shown)
Valpha: GQQLNQSPQSMFIQEGEDVSMNCTSSSIFNTWLWYKQEPGEGPVLLIALYKAGELTSNGRLTAQFGITRKDSFLNISASIPSDVGIYFCAGQLRYGGATNKLIFGTGTLLAVQP
Vbeta: DSGVTQTPKHLITATGQRVTLRCSPRSGDLSVYWYQQSLDQGLQFLIHYYNGEERAKGNILERFSAQQFPDLHSELNLSSLELGDSALYFCASSVGGASYEQYFGPGTRLTVT
B15: recognises [10].

B16: TCRCD8-EL8-LM7 #4 (TCR, V domains shown)
Valpha: AQKVTQAQTEISVVEKEDVTLDCVYETRDTTYYLFWYKQPPSGELVFLIRRNSFDEQNEISGRYSWNFQKSTSSFNFTITASQVVDSAVYFCALSNAGGTSYGKLTFGQGTILTVHP
Vbeta: EAQVTQNPRYLITVTGKKLTVTCSQNMNHEYMSWYRQDPGLGLRQIYYSMNVEVTDKGDVPEGYKVSRKEKRNFPLILESPSPNQTSLYFCASSRRLPPPYGYTFGSGTRLTVV
For B16, the “minimal recognised peptide concentration” value [9] was 10 nM.

B17: TCRCD8-EL8-LM7 #7 (TCR, V domains shown)
Valpha: AQKVTQAQTEISVVEKEDVTLDCVYETRDTTYYLFWYKQPPSGELVFLIRRNSFDEQNEISGRYSWNFQKSTSSFNFTITASQVVDSAVYFCALSESSNTGKLIFGQGTTLQVKP
Vbeta: EAQVTQNPRYLITVTGKKLTVTCSQNMNHEYMSWYRQDPGLGLRQIYYSMNVEVTDKGDVPEGYKVSRKEKRNFPLILESPSPNQTSLYFCASSRREPPPYGYTFGSGTRLTVV
For B17, the “minimal recognised peptide concentration” value [9] was 10 nM.

— patent US20230405046A1 (published 2023)
